Tested on: MS2 coat protein
Test: apparent KD of MS2 coat protein; designed switch direction (-1 OFF switch, 1 ON switch): 1; higher = weaker reporter binding
Summary of the method: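 The buffer was Tris-HCl pH 7.5 with KCl, MgCl2, BSA, DTT, tRNA and Tween-20. In it, SNAP-549-labelled MS2 coat protein was titrated in doubling steps from 0.7 or 1.5 nM to 3 µM over chip-bound RNA switches transcribed by stalled E. coli RNA polymerase on Illumina chips. Apparent KD is the per-design median over clusters of curve fits to normalised fluorescence.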

[1] = input ligand: microRNA oligo, concentration not stated
[2] = Eterna round: R95, input ligand: FMN 200 uM
[3] = Eterna round: R95, input ligand: microRNA oligo, concentration not stated
[4] = Eterna round: R95, input ligand: none

Sequence	apparent KD of MS2 coat protein (input ligand: FMN 200 uM) [nM]	apparent KD of MS2 coat protein [1] [nM]	apparent KD of MS2 coat protein (input ligand: none) [nM]	apparent KD of MS2 coat protein [2] [nM]	apparent KD of MS2 coat protein [3] [nM]	apparent KD of MS2 coat protein [4] [nM]
CCGCCGGGAACCCGGCGAAAACAUGAGGAUCACCCAUGUACACAGGAUAUCGUGACAUUAACAAACGAGAAGGGUGGCCGAGAC [Lelateen] (Eterna round: R96, puzzle: Same State NG 3)	453	189	182	–	–	–
CCGGAUAAUGGAGGAUAUGGAGCCUUAUUGGCUCCAGAAGGCUAACAUGAGGAUCACCCAUGUAGUCCGGCGGUCAAUAGACCG [Eli NG1ss - 67] (Eterna round: R96, puzzle: Same State NG 1)	10.9	11.5	21.6	–	–	–
CCGGCAAGUAUAGGAUAUCCCGCAACAGAAACGGGAGAAGGGUGCCAAACAUGAGGAUCACCCAUGUACACCGGAAAUAAAUAA [Lazaorra] (Eterna round: R96, puzzle: Same State NG 1)	54.9	56.4	46.9	–	–	–
CCGUAAUAUGGAGGAUAUGGAGCCUUAUUGGCUCCAGAAGGUCAUAACACAUGAGGAUCACCCAUGUCGGCGGUCAAUAGACCG [Eli NG1ss - 76] (Eterna round: R96, puzzle: Same State NG 1)	19.4	74.9	68.3	–	–	–
CCGUAGAUGGAAGGAUAUGGAGCCUUAUUGGCUCCAGAAGGUUCAAUAACAUGAGGAUCACCCAUGUCGGCGGUCAAUAGACCG [Eli NG1ss - 80] (Eterna round: R96, puzzle: Same State NG 1)	20.5	27.7	44.9	–	–	–
CCUGACAUGAGGAUCACCCAUGUAGGGAAACAAUGACAUAUGGAGGAUAUACACCCGAAAGGCGCGUAGAAGGUCACAUGUCCA [Eternabot solution 5] (Eterna round: R96, puzzle: Same State NG 3)	10.7	10.8	13	–	–	–
CGAAGUCGUAGAGGAUAUGGGUGGCCGGAGUCAACAUGAGGAUCACCCAUGUGCUAAUAUGAGAUCCAGAAGGCUGCGAACGGG [Eternabot solution 16] (Eterna round: R96, puzzle: Same State NG 2)	57.1	31.4	430	–	–	–
CGCCGACAUGAGGAUCACCCAUGUGAGCGACUCACAGGAUAUACGCGAUAACAAAGUCGCGUAGAAGGGUGCUCCU [Iscezaso] (puzzle: Same State 1)	–	–	–	23.4	19.2	23.3
CGCGAACAGGCAGGAUAUAUAGAGCCAAAUAUUGUAGAAGGGCCACGUGCGGGAAGAGAACACAUGAGGAUCACCCAUGUUCGA [Eternabot solution 5] (Eterna round: R96, puzzle: Same State NG 1)	27.4	27.9	30.7	–	–	–
CGGCGCUGUCGAGAGGAUAUGCGGUGAUGGACAUGAGGAUCACCCAUGUUAGCGAUAGCAUCACGGUAGAAGGCUCUUACGCCUG [Soteed Omei mod 23] (Eterna round: R96, puzzle: Same State 2)	217	257	717	–	–	–
CGGCGCUGUCGAGAGGAUAUGCGGUGAUGGACAUGAGGAUCACCCAUGUUAGCGAUAGCAUCACGGUAGAAGGCUCUUACGCCUG [Soteed Omei mod 23] (puzzle: Same State 2)	–	–	–	91.5	130	205
CGGCGCUGUUGAGAGGAUAUGCGGUGAUGGACAUGAGGAUCACCCAUGUUAGCGAUAGCAUUACGGUAGAAGGCUCUACAGCUGC [Soteed Omei mod 6] (puzzle: Same State 2)	–	–	–	–	18.9	–
CGGCUCCGUGGAGGAUAUGGGCCUGCCCGGGAUAACGGGCCUAACACAUGAGGAUCACCCAUGUCCCAGAAGGCCGCUGGAGCC [Enineseson] (Eterna round: R96, puzzle: Same State NG 2)	14	39.1	54.4	–	–	–
CGUAGGCCUCUCAACAUGAGGAUCACCCAUGUACGUGAAACGUAGGAUAUCACACAACUAAUGUGUGAGAAGGGCGCGCCGGAG [Eternabot solution 25] (Eterna round: R96, puzzle: Same State NG 3)	–	91.4	–	–	–	–
CGUCCAGCCUGAGCUGGACAAAAGCAUGUACAUGAGGAUCACCCAUGUUCAUGUACAAGCUUUUUGCUCGUCUUAAC [salish99_208a_r3_039] (puzzle: Sensor for hsa-mir-208a)	–	–	–	660	18.2	616
CGUCCAGCCUGAGCUGGACAAAAGCAUGUACAUGAGGAUCACCCAUGUUCAUGUACAAGCUUUUUGCUCGUCUUAGC [salish99_208a_r3_075] (Eterna round: R96, puzzle: Sensor for hsa-mir-208a)	598	13.8	616	–	–	–
CGUCCAGCCUGAGCUGGACAAAAGCAUGUACAUGAGGAUCACCCAUGUUCAUGUACAAGCUUUUUGCUCGUCUUAGC [salish99_208a_r3_075] (puzzle: Sensor for hsa-mir-208a)	–	–	–	730	14.3	860
CGUCCAGCCUGAGCUGGACAAAAGCAUGUACAUGAGGAUCACCCAUGUUCAUGUACAAGCUUUUUGCUCGUCUUAGG [salish99_208a_r3_074] (puzzle: Sensor for hsa-mir-208a)	–	–	–	593	20.1	744
CUAAAACAUGAGGAUCACCCAUGUCAACAAAGUCGAGGAUAUGGGCAAAUAAAAUAAGAACCAGAAGGCGAAUAAC [salish99_SS1_r3_014] (puzzle: Same State 1)	–	–	–	–	222	–
CUCCGGAAGCGAGGAUAUGCAGAGGAUCACCCUGCAGAAGGCGCAAAAGCGAGGAUAUGCAGAGGAUCACCCUGCAGAAGGCGC [pwkr ssNG DX.33] (Eterna round: R96, puzzle: Same State NG 1)	10.2	33.3	39.9	–	–	–
CUCCUAUCGGGAGGAUAUGGUGCCUUGUUGGUGCUAGAAGGUCCAACAUGAGGAUCACCCAUGUGGGAGUGGUUGAGAGACCUC [SS NG10LRO13] (Eterna round: R96, puzzle: Same State NG 1)	131	105	137	–	–	–
CUGACGUGAUCAGGAUAUUGUAAGACAAUGUUGCAAGAAGGGAUUAAUGAGCCCGAACAGACAUGAGGAUCACCCAUGUGUCAG [Eternabot solution 41] (Eterna round: R96, puzzle: Same State NG 1)	69.5	51.6	67.6	–	–	–
CUGAGCGAUCAAGGAUAUCACGUCGAUUAGACGUGAGAAGGUGAUAAUUACAUGAGGAUCACCCAUGUAUAACAUGAAGCUCAG [SSNG1/9-A2] (Eterna round: R96, puzzle: Same State NG 1)	16	17.3	19.8	–	–	–
CUUGCCCAGUCAGGAUAUGGGAAAGGAAGUGUACCAGAAGGGACAAGAAAGGACAUGAGGAUCACCCAUGUCGGGCAGGCGAGA [PowerStrip SSNG 1.23] (Eterna round: R96, puzzle: Same State NG 1)	32.8	82.3	97.1	–	–	–
GAAAUAAUGAAAGGAUAUACAUGAGGAAUUCUCGUAGAAGGUUCAUGACAUGAGGAUCACCCAUGUAUCGCUCGAAAGAGCGAG [Mat - Same State NG 1 - JL mod - D31] (Eterna round: R96, puzzle: Same State NG 1)	510	152	64	–	–	–
GACAAUCUAUCUGAGGAUAUCAUGAAAAAAACAUGAGGAUCACCCAUGUGCAGGAAAACUGCAUAUGAGAAGGCAGAUAGAUUGA [salish99_SS2_r3_009] (Eterna round: R96, puzzle: Same State 2)	–	453	–	–	–	–
GACAAUCUAUCUGAGGAUAUCAUGAAAAAAACAUGAGGAUCACCCAUGUGCAGGAAAACUGCAUAUGAGAAGGCAGAUAGAUUGA [salish99_SS2_r3_009] (puzzle: Same State 2)	–	–	–	19.7	155	1190
GACAAUCUAUCUGAGGAUAUCAUGAAGAAAACAUGAGGAUCACCCAUGUGCAGGAGAACUGCAAAUGAGAAGGCAGAUAGAUUGG [Mat - Same State 2 - Mod - D2] (puzzle: Same State 2)	–	–	–	8.71	13.1	20.4

Source: the supplement of paper PMC9170038
